Results: patent publication US20260258115A1 (MAPP BIOPHARMACEUTICAL, published 2026)
Where a chain is given by its changes, count along the chain named.

B1: ADI-14342 (antibody, V domains shown)
VH: QVTLKESGPVLVKPTETLTLTCTVSGFSLSNAKMGVSWIRQPPGKALEWLAYISSNDEKSYSTSLKSRLTISKDTSKSQVVLTMTNMDPVDTATYYCARILLYDSSGYYLWYFDLWGRGTLVTVSS
VL: DIQVTQSPSSLSASVGDRVTITCRASQRITSYLNWYQHKPGKAPKLLIFAASSLHSGVPSTFSGSGSGTDFTLTISSLQPEDFATYYCQQSYSTPWTFGQGTKVEIK
notes: full-length IgG; also called Ab 10
B2: ADI-14343 (antibody, V domains shown)
VH: QVQLVQSGAEVKKPGSSVKVSCKASGGTFSSYGVNWVRQAPGQGLEWMGRIIPMFGTSNYAQKFQGRVTITADGSTSTAYMELSSLRSEDTAVYYCARVGSPTTGAIMGVWGQGTTVTVSS
VL: DIVLTQTPLSLPVTPGEPASISCRSSQSLLQSNGFNYLDWYLQKPGQSPKLLIYMGSNRASGVPDRFSGSGSGTDFTLIISRVEAEDVGVYYCMQAIESPLTFGGGTKVDIK
notes: full-length IgG; also called Ab 11
B3: ADI-14389 (antibody, V domains shown)
VH: EVQLVESGGGLVKPGGSLRLSCAASGFTFINAWMAWVRQAPGKGPEWVGRIKSRADGGTTDYAAPVKGRFTISRDDSKNRLFLQMDSLKTDDTAVYFCTTGVRALRFYNGMDVWGQGTTVTVSS
VL: ETTLTQSPSSLSASIGDRVTITCRAGQSISSFLNWYQQKPGKAPKLLIYAASTLQSGVPSRFSGSKSGTDFTLTISSLQPEDFATYYCQQSYHTFTFGPGTKVEIK
notes: full-length IgG; also called Ab 56
B4: ADI-14373 (antibody, V domains shown)
VH: QVQLQQWGAGLLKPSETLSLTCAVYGGSFSGSYWSWIRQPPGKGLEWIGEINHSGSTSYNPSLKSRVTISVDTSKKQFSLKLSSMTAADTAVYYCAGGFYYDSSGSYAPHPTFDYWGQGTLVTVSS
VL: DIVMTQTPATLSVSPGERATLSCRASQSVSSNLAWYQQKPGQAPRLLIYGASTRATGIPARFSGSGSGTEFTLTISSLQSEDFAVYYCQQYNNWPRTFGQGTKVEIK
notes: full-length IgG; also called Ab 41
B5: ADI-14384 (antibody, V domains shown)
VH: QVQLQESGSGLVKPSQTLSLTCTVSGGSISSVGYSWSWIRQPPGKGLEWIGYIYHSGSPYYSPSLNSRVTISVDRSKNQFSLKLSSVTAADTAVYFCARVFFGGGGAFDIWGQGTTVTVSS
VL: QPGLTQPPSVSVAPGQTARITCGGNNIGSKSVQWYQQKPGQAPVLVMYYDSDRPSGIPDRFSGSSSGNTATLTITRVEAGDEADYSCQVWDSVNVHPVIFGGGTKLTVL
notes: full-length IgG; also called Ab 52
B6: ADI-14362 (antibody, V domains shown)
VH: EVQLLESGGGLVQPGGSLRLSCAASGFTFSSYAMSWVRQAPGKGLEWVSGISGSGGSTYYADSVKGRFTISRDNSKNTLYLEMNSLRAEDTAVYYCAKRYYYGSGTYTFDIWGQGTMVTVSS
VL: not shown
notes: full-length IgG; also called Ab 30
B7: ADI-14386 (antibody, V domains shown)
VH: EVQLVESGGGLVQPGGSLRLSCAASRFTFSSYAMSWVRQAPGKGLEWVSGIGASGGTTYYADSVKGRFTISRDNSKNTVYLQMNSLRAEDTAVYYCARCEYYYGSGSAGYYFDYWGQGTLVTVSS
VL: SYELTQPPSVSVSPGQTASITCSGDKLGSKFAFWYQQKPGQSPVLVIFQDVKRPSGIPERFSGSNSGNTATLTISGTQAMDEADYYCQAWDSGTAVFGGGTKVTVL
notes: full-length IgG; also called Ab 54
B8: ADI-14359 (antibody, V domains shown)
VH: QVQLVQSGPALVKPTQTLTLTCTFSGFSLSTSGMCVSWIRQPPGKALEWLARIDWDDDKYYSTSLKTRLTISKDTSKNQVVLTMTNMDPVDTATYYCARATNYDSSGYYSLYFDYWGQGTLVTVSS
VL: not shown
notes: full-length IgG; also called Ab 27
B9: ADI-14381 (antibody, V domains shown)
VH: EVQLVESGGGLVQPGGSLRLSCAASGFTFSSYSMNWVRQAPGKGLEWVSYIGSSSSSVYYGDSAKGRFTISRDNAKNSLYLQMNSLRDEDTALYYCARVGWLQYCRGGSCYASFGMDVWGQGTTVTVSS
VL: DIQMTQSPSSLSASVGDRVTITCRASQGIRNDLGWYQQKPGIAPKLLIYAASSLQSGVPSRFSGSGSGTDFTLTISSLQPEDFATYYCLQDYDSPYTFGQGTKLEIK
notes: full-length IgG; also called Ab 49
B10: ADI-14348 (antibody, V domains shown)
VH: QVQLVESGGGVAQPGGSLRLSCVASGFTFSNYGMHWVRQAPGKGLEWVAFIRSDGSKKYYGDSGKGRFTISRDNSKNTLYLQMNSLRAEDTALYYCARERAGATFAFDIWGQGTTVTVSS
VL: QSALTQPRSVSGSPGQSVTISCTGTSSDVGGYNFVSWYQHHPGKAPKLMIYDVTNRPSGVPDRFSGSKSGNTASLTISGLQADDEADYYCCSYAGGFTFYVFGTGTKVTVL
notes: full-length IgG; also called Ab 16
B11: ADI-14353 (antibody, V domains shown)
VH: QVQLVQSGAEVKKPGSSVKVSCKASGGTFSSYTISWVRQAPGQGLEWMGRIKPIIGIANNAQRFKGRVTITAEKSTGTAYMELSSLTSEDTAVYYCARGGYDYYGMDVWGQGTTVTVSS
VL: QSALTQPASVSGSPGQSITISCTGTSSDVGGYNYVSWHQQHPGKAPKLLIYDVSNRPSGVSNRFSGSKSGNTASLSISGLQAEDEADYYCSSFTSTSTPYVFGTGTQLTVL
notes: full-length IgG; also called Ab 21
B12: ADI-41743 (antibody, V domains shown)
VH: EVQLVESGSGLVKPSQTLSLTCSVSGGSISSGGYSWSWIRQPPGKGLEWIGFIYNTGSTYSNPSLKSRLTLSVDRSNNRFSLKLNSVTAADTGVYFCARSGNVRQCDATGHCSTNYYFEYWGLGTLVTVSS
VL: EIVMTQSPATLSVSPGERATLSCRASQSVSSNLAWYQQKPGQAPRLLIYGASTRATGIPARFSGSGSGTEFTLTISSLQSEDFAVYYCQQHDDWPPLTFGGGTKVEIK
notes: also called Ab 898; Antibody Number 898
B13: ADI-41703 (antibody, V domains shown)
VH: EVQLLESGSGLVKPLQTLSLTCAVSGGSISSGGYSWSWIRQPPGKGLEWIGYIYPSGSTYYNPSLKSRVTMSIDRSKNQFSLRLTSVTAADTAVYYCARGDGNDFWSADSSHAFAIWGQGTMVTVSS
VL: EIVMTQSPGTLSLSPGERATLSCRASQIVGNSYLAWYQQKPGQAPRLLIYGASSRATGIPERFSGSGSGTDFTLTISRLEPEDFAVYHCQQYGSSPWTFGQGTKVEIK
notes: also called Ab 895; Antibody Number 895
B14: ADI-41737 (antibody, V domains shown)
VH: QVQLQESGPGLVKPSQTLSLTCTVSGGSMISGDFYWSWIRQPPGKGLEWIGYIYYSGTTYYSPSLKSRVSMSIDTSKSQFSLKLSSVTAADTAVYYCARKYSYGEKAYHYWGQGTLVTVSS
VL: B13 VL with M4L, I28T, S32N, E61D, P81S, Q90H, S94T, W97Q
notes: also called Ab 897; Antibody Number 897
B15: ADI-41768 (antibody, V domains shown)
VH: EVQLVESGGGLVQPGRSLRLSCAASGFTFGDYAMHWVRQAPGKGLEWVSGITWNSGRVVYADSVKGRFTISRDNAKNSLYLQINSLRAEDTALYYCVKGSCNGGICYSADYWGQGTLVTVSS
VL: NFMLTQPHSVSESPGKTVTISCTRSSGSIARNFVHWYQQRPGSSPTTVIYEDNQRPSGVPGRFSGSIDSSSNSASLTISGLRSEDEADYYCQSYDSDNWVFGGGTKLTVL
notes: also called Ab 900; Antibody Number 900
B16: ADI-41678 (antibody, V domains shown)
VH: EVQLVESGGGVVQPGGSLRLSCAASGFTFRTYGMHWVRQAPGKGLEWVAVISYDGSNKYYADSLMGRFTISRDNSKNTLYLQMNSLRAEDTAVYYCAKCFVPGSGGWYEYYFDYWGQGTLVTVSS
VL: QSVLTQPPSASGSPGQSVTISCTGTSSDVGGYNYVSWYQQHPGKAPKLMIYEVSKRPSGVPDRFSGSKSGNTASLTVSGLQAEDEADYYCSSYAGINNSVLFGGGTKLTVL
B17: ADI-41701 (antibody, V domains shown)
VH: QVQLVQSGAEVKKPGESLKISCQASGYSFTTYWIGWVRQTPGKGLEWMGIIYPGDSDTRYTPSFQGQVTISADKSISTAYLHWSSLKASDTAMYYCARLSGGYTFGFDYWGLGTLVTVSS
VL: NFMLTQPHSVSESPGKTVTISCTRSSGNIARYYVQWYQQRPGRAPTTVIYEDDQRPSGVPDRFSGSIDRSSNSASLTISGLKTEDEADYYCQSYDASNYVFATGTKVTVL
B18: ADI-41677 (antibody, V domains shown)
VH: QVTLKESGPALVKPTQTLTLTCTFSGFSLSTSRMCVSWIRQPPGKALEWLARIDWDGDIYYSTSLRTRLTISKDTSKNQVVLTMTNMDPVDTATYYCARTSIYATGGYYLYYSDYWGQGTLVTVSS
VL: EIVMTQSPSSLSASVGDRVTITCRASQSIASYVNWFQQKPGKAPKLLIYAASNVHSGVPSRFSGSGSGTGFTLTISSLQPEDSAIYYCQQSYTTPWTFGQGTKLEIK
B19: ADI-41720 (antibody, V domains shown)
VH: QVQLVESGGGVVQPGRSLRLSCAASGFTFSSYGMHWVRQAPGKGLEWVSVIWFDGSKKYYEDSVKGRFTISRDNSKNTLYLEMNSLRAEDTAVYYCAREAPVRLGELSLYGYFDYWGQGTLVTVSS
VL: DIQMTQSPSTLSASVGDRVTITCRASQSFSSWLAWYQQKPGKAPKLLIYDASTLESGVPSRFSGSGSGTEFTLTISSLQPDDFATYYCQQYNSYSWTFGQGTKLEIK
notes: also called Ab 896; Antibody Number 896

Target: T1, RSV postfusion F (postF), subtype A (respiratory syncytial virus subtype A, UniProt P03420 26-513)
T1 construct: also called Postfusion subtype A; F deltaFP
Experiment: BLI, IgG

In order of falling Kd:
1. B3  22.9 nM
2. B6  15.7 nM
3. B10  5.66 nM
4. B8  4.11 nM
5. B2  2.94 nM
6. B7  1.32 nM
7. B4  1.06 nM
8. B9  0.754 nM
9. B1  0.495 nM
10. B5  0.469 nM
11. B11  0.26 nM

Target: T2, RSV prefusion F (preF), subtype B (respiratory syncytial virus subtype B)
T2 construct: also called Prefusion subtype B
Experiment: BLI, IgG

In order of rising Kd:
1. B7  3.04 nM
2. B5  4.78 nM
3. B11  12.6 nM
4. B4  15.9 nM
5. B1  26.1 nM
6. B8  34.6 nM
7. B9  36.7 nM
8. B2  38.1 nM
9. B3  81.5 nM
10. B10  110 nM
11. B6  119 nM

Target: RSV F on RSV subtype A virus (mKate-RSV A2) (respiratory syncytial virus A2, UniProt P03420 26-574)
Experiment: cell-based or functional assay

In the case of B1, the “Neut IC50 subtype A” value is reported as 1.75 µg/mL.

Target: RSV F on RSV subtype B virus (mKate-RSV B 18537) (respiratory syncytial virus B 18537, UniProt P13843 26-574)
Experiment: cell-based or functional assay

In order of rising “Neut IC50 subtype B” value:
1. B1  8.27 µg/mL
2. B11  14.6 µg/mL

Target: RSV F on RSV-A2 virus (Respiratory syncytial virus, RSV-A2, UniProt P03420 26-574)
Experiment: cell-based or functional assay

B12 and B13 cannot be ordered by “Neutralization IC50 (RSV subtype A)” value: over 25 µg/mL for the first, over 25 µg/mL for the second.

B14 and B15 cannot be ordered by “Neutralization IC50 (RSV subtype A)” value: over 25 µg/mL for the first, over 25 µg/mL for the second.

B16 and B17 cannot be ordered by “Neutralization IC50 (RSV subtype A)” value: over 25 µg/mL for the first, over 25 µg/mL for the second.

B18 and B19 cannot be ordered by “Neutralization IC50 (RSV subtype A)” value: over 25 µg/mL for the first, over 25 µg/mL for the second.

Target: RSV prefusion F (preF), DS-Cav1 (Respiratory syncytial virus, UniProt P03420 26-513)
Experiment: BLI, IgG on anti-human IgG sensor, 100 nM antigen

In order of falling Kd:
1. B19  22 nM
2. B12  5.45 nM
3. B13  4.2 nM
4. B14  3.58 nM
5. B16  2.92 nM
6. B17  1.93 nM
7. B15  1.61 nM
8. B18  1.28 nM

Target: RSV postfusion F (postF), F ΔFP (Respiratory syncytial virus, UniProt P03420 26-513)
Experiment: BLI, IgG on anti-human IgG sensor, 100 nM antigen

In order of falling Kd:
1. B14  1.58 nM
2. B12  1.27 nM
3. B16  1.17 nM
4. B19  1.17 nM
5. B13  0.843 nM
6. B18  0.339 nM
7. B15  0.338 nM
8. B17  0.289 nM
